Test results as given in US20170319655A1 (UNIVERSITY OF MARYLAND BALTIMORE, published 2017).

Key:
[1] = target: T1, MUC1-ED on Ad-NEU1-infected airway epithelial cells (A549 cells; SAECs), desialylated by overexpressed NEU1 (human, UniProt P15941 24-1255, glycans desialylated by overexpressed NEU1); assay: Scatchard transformation of Alexa Fluor 594-flagellin binding to A549 cells
T1 construct: Endogenous MUC1 of human airway ECs that overexpress NEU1; also called Ad-NEU1-infected ECs

[2] = target: T2, MUC1-ED on Ad-GFP-infected airway epithelial cells (A549 cells; SAECs) (human, UniProt P15941 24-1255, endogenous sialylated glycans (alpha2,3- and alpha2,6-linked sialic acid)); assay: Alexa Fluor 594-flagellin binding to Ad-GFP-infected A549 cells, 40 min at 4 C, fluorometry, Scatchard transformation; receptor named by the filing as MUC1-ED
T2 construct: Endogenous MUC1 of human airway ECs; also called Ad-GFP-infected ECs
T2 sequence (P15941 24-1255 limits assumed): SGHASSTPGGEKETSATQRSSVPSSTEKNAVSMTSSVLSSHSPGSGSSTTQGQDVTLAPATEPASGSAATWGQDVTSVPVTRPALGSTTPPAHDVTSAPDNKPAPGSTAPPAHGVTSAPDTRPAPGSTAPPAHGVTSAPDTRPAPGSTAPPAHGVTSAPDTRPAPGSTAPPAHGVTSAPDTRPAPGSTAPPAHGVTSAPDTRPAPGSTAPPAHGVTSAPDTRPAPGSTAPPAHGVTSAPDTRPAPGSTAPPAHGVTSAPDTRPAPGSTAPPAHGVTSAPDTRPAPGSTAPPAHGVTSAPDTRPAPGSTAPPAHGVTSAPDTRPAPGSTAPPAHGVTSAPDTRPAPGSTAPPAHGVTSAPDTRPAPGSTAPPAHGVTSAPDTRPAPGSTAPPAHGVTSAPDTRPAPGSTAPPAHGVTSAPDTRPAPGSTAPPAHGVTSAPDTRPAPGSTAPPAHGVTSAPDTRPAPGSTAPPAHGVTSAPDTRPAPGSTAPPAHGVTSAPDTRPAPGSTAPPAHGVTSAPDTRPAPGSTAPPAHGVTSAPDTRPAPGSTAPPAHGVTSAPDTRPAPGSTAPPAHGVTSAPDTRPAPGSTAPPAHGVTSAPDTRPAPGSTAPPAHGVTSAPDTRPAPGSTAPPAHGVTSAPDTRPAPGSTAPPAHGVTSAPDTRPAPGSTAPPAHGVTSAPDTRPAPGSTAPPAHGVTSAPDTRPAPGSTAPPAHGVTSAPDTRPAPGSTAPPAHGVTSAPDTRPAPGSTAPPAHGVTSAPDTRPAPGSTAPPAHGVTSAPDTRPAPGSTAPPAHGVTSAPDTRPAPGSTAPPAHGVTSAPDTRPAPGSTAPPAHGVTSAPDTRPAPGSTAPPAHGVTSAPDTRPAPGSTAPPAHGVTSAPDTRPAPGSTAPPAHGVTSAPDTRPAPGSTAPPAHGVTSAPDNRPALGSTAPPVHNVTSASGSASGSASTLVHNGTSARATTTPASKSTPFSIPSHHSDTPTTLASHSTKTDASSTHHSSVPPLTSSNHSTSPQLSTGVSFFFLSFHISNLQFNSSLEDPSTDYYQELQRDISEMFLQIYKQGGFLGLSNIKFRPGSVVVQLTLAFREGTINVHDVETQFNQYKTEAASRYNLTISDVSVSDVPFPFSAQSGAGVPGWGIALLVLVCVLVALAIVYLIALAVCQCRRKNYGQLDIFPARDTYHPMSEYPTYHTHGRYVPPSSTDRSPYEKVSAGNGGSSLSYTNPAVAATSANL

[3] = target: T1, MUC1-ED on Ad-NEU1-infected airway …; assay: Alexa Fluor 594-flagellin binding to Ad-NEU1-infected A549 cells, 40 min at 4 C, fluorometry, Scatchard transformation; receptor named by the filing as MUC1-ED

T1 sequence (P15941 24-1255 limits assumed): as above

B1: Pseudomonas aeruginosa (Pa) flagellin purified from Pa strain PA01, Alexa Fluor 594-labeled (ligand)
chain: MALTVNTNIASLNTQRNLNASSNDLNTSLQRLTTGYRINSAKDDAAGLQISNRLSNQISGLNVATRNANDGISLAQTAEGALQQSTNILQRIRDLALQSANGSNSDADRAALQKEVAAQQAELTRISDTTTFGGRKLLDGSFGTTSFQVGSNAYETIDISLQNASASAIGSYQVGSNGAGTVASVAGTATASGIASGTVNLVGGGQVKNIAIAAGDSAKAIAEKMDGAIPNLSARARTVFTADVSGVTGGSLNFDVTVGSNTVSLAGVTSTQDLADQLNSNSSKLGITASINDKGVLTITSATGENVKFGAQTGTATAGQVAVKVQGSDGKFEAAAKNVVAAGTAATTTIVTGYVQLNSPTAYSVSGTGTQASQVFGNASAAQKSSVASVDISTADGAQNAIAVVDNALAAIDAQRADLGAVQNRFKNTIDNLTNISENATNARSRIKDTDFAAETAALSKNQVLQQAGTAILAQANQLPQAVLSLLR
modifications: Alexa Fluor 594 label (site not stated)
notes: also called purified flagellin; Alexa Fluor 594-flagellin
- fold reduction in Kd against Ad-GFP-infected ECs [1]: 2.9 fold
- Kd [2]: 7.35 nM
- Kd [3]: 2.54 nM
